Literature values, collected in paper PMC5805400.
Where two headings read alike, the source gives them in different places. Each block holds one substance with its values, some of them ahead of it.

Legend:
CYP2J2 (Homo sapiens) = CYP2J2 (Homo sapiens) (UniProt P51589); assay: spin shift
[1] = molecular target: CYP2B4 (Oryctolagus cuniculus) (UniProt P00178)
[2] = molecular target: CYP2B4 (Oryctolagus cuniculus) (UniProt P00178); remark: listed apart in the source
[3] = molecular target: ICP47 (Human alphaherpesvirus 1) (UniProt P03170)
Sequence of UniProt P03170 (P03170 whole entry): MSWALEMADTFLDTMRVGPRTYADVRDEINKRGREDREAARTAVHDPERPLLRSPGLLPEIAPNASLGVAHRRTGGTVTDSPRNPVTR

[4] = molecular target: ICP47 (Human alphaherpesvirus 1) (UniProt P03170); remark: listed apart in the source

Sequence of UniProt P00178 (P00178 whole entry): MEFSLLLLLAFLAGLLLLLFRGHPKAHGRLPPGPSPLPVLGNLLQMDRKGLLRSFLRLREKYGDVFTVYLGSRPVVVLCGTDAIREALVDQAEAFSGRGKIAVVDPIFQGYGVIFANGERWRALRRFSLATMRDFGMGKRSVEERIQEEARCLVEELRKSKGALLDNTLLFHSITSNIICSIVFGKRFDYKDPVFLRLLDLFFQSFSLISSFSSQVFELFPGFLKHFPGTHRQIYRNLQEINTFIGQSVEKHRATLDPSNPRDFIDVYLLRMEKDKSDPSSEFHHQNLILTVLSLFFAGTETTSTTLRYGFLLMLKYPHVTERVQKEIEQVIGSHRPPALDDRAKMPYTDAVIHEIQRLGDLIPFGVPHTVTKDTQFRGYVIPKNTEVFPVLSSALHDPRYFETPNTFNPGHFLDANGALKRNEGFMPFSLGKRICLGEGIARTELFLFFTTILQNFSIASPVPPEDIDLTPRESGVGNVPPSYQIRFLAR
Sequence of UniProt P51589 (P51589 whole entry): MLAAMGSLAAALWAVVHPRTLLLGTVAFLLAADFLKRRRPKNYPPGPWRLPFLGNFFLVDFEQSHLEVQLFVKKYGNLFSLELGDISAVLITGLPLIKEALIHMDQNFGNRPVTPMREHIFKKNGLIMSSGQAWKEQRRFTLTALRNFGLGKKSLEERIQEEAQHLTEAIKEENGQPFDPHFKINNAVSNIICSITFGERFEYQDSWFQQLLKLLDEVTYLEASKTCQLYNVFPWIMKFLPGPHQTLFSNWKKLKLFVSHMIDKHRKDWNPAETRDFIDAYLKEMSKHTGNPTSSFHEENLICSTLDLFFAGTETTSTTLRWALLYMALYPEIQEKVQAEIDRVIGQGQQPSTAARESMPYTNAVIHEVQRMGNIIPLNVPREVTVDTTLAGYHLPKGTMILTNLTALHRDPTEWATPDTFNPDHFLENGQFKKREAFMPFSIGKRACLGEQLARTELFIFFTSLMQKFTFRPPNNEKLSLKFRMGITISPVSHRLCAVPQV

Kd (CYP2J2 (Homo sapiens)): 120 nM
Substance: CPR (from UniProt P16435)

Kd [1]: 140 nM
Kd [2]: 8 nM
Substance: Cytochrome b5 (from UniProt P00169)

Substance: TAP (from UniProt Q03518)
Ki [3]: 280 nM
Ki [4]: 210 nM
